Experimental data published in patent US20260193293A1 (UNIVERSITY OF COPENHAGEN, published 2026).
Non-standard residues stand in square brackets, D forms with d. 2Nal = N[C@@H](Cc1ccc2ccccc2c1)C(=O)O

Tests used:
[1] = target: T1, Sushi domains (SD1/2) protein of the GABAB1a (GB1a) subunit, recombinant; test: FP competition
T1 construct: domain: Sushi domains (SD1/2); also called SDs; sushi domain 1/2 (SD1/2) protein

[2] = target: T2, native full-length GB1a subunit from mouse brain membrane fraction (mouse, UniProt Q9WV18 20-960); test: pull-down from mouse brain lysate, immunoblot
T2 construct: Detected by immunoblot after pull-down from brain lysate; also called native GB1a; native SD
T2 sequence (Q9WV18 20-960): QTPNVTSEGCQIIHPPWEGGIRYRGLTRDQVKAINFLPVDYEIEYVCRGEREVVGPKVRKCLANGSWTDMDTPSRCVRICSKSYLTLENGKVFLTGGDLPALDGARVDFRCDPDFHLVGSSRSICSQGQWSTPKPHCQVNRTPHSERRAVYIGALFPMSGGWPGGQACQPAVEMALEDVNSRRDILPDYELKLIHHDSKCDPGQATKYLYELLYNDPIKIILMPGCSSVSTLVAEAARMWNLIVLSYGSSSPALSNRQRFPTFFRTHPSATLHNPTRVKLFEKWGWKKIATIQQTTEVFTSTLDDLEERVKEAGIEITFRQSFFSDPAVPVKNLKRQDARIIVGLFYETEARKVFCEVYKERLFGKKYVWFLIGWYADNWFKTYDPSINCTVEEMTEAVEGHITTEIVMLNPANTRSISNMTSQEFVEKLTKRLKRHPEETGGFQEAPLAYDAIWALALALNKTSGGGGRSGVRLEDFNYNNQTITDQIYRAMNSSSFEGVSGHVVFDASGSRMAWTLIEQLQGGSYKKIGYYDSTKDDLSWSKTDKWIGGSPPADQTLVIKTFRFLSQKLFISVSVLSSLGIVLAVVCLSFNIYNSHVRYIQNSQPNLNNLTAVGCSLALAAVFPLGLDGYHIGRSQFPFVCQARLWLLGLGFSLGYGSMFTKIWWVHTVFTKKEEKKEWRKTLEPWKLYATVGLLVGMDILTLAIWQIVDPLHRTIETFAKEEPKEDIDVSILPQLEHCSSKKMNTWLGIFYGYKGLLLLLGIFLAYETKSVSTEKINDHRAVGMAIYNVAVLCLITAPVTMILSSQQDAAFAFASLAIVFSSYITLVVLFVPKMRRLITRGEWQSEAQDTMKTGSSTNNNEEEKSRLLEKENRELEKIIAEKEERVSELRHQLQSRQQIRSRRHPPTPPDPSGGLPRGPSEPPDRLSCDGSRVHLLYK

T1 sequence (Q9Z0U4 29-158): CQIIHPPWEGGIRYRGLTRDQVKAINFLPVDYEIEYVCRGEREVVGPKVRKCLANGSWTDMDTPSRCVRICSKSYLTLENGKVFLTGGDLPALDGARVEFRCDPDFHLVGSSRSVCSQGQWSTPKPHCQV

B1: Scr-20, scrambled version of peptide 20 ((2Nala)EDSDDYDDIDDDW) (peptide)
peptide: Ac-[2Nal]EDSDDYDDIDDDW-NH2
SMILES: CC[C@H](C)[C@H](NC(=O)[C@H](CC(=O)O)NC(=O)[C@H](CC(=O)O)NC(=O)[C@H](Cc1ccc(O)cc1)NC(=O)[C@H](CC(=O)O)NC(=O)[C@H](CC(=O)O)NC(=O)[C@H](CO)NC(=O)[C@H](CC(=O)O)NC(=O)[C@H](CCC(=O)O)NC(=O)[C@H](Cc1ccc2ccccc2c1)NC(C)=O)C(=O)N[C@@H](CC(=O)O)C(=O)N[C@@H](CC(=O)O)C(=O)N[C@@H](CC(=O)O)C(=O)N[C@@H](Cc1c[nH]c2ccccc12)C(N)=O
For B1, which Ki [1] is on record?
The Ki was 31 µM.

Does B1 bind [2]?
Result: no binding
